Results published in paper PMC7323979.

Molecular target: α-synuclein fibrils (preformed seeds) (human) (UniProt P37840)

bovine γB-crystallin, sequence (P02526 whole entry): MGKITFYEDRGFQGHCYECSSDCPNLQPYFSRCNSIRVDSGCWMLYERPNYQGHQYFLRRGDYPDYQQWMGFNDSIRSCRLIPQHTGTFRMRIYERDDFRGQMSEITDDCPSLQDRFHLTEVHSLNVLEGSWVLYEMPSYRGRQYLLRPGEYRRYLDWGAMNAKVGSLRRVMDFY

bovine γB-crystallin (from UniProt P02526 1-175) (natural protein)
lowest crystallin concentration which efficiently inhibits α-syn fibril formation (ThT, 20 μM α-syn monomer, 1 μM α-syn seeds, pH 5.5, 37°C); the same value is also printed as 4.75 μM monomers: 0.1 mg/ml
